Data: the nanobody polyreactivity screen of Harvey et al. (2022)

assay: yeast display, Sf9 membrane polyspecificity reagent, FACS + sequencing; frameworks hold sequencing errors
Summary of the method: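 Nanobodies from a synthetic yeast display library (Saccharomyces cerevisiae BJ5465), induced 36–48 hours with galactose, were stained 1 hour at 4 °C with 10% biotinylated, detergent-solubilized Sf9 membrane reagent, enriched on streptavidin microbeads, then FACS-sorted. Anti-HA (expression) and streptavidin (reagent binding) fluorescence set low and high (top ~1%) gates. Polyreactivity labels come from the gate of origin. Genes were colony-PCR amplified, MiSeq 2 × 250 sequenced and filtered by CDR length.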

Sequence | polyreactivity (PSR sort gate)
QVQLVESGGGLVQAGGSLRLSCAASGSILGLYAMRWYRQATGKERELVASIPSSGSTYYAVSVKGRFTISRDYAKNTVYLQMYSLKPEDTAVYYCAAVGSYYYYIRYDYWGQGTQVTVSS | low polyreactivity
QVQLVESGGGLVQAGGSLRLSCAASGSILGPNAMGWYRQAPGKERELVARISTSGGSTYYADSVKGRFTISRDNAKNTVYLQMNSLKPEDTAVYYCATGLVWWRSPYDYWGQGTQVTVSS | high polyreactivity
QVQLVESGGGLVQAGGSLRLSCAASGSILGPYAMGWYRQAPGKERELVAGISGSGTRTYYADSVKGRFTISRDNAKNTVYLQMNSLKPEDPAVYYCAARYYSSWIRYPTYDYWGQGTQVTVSS | high polyreactivity
QVQLVESGGGLVQAGGSLRLSCAASGSILGRYAMGGYRQAPGKERELVASITRRAGTTYYADSVKGRFTISRDNAKNTVYLQKNSLKPEATAVYYCAARAYTNYYYWGQGTQVTVSS | high polyreactivity
QVQLVESGGGLVQAGGSLRLSCAASGSILGSNAMGWYRQAPGKERELVAAITSSGGSTYYADSVKGRFTISRDNAKNTVYLQMNSLKPEDTAVYYCAARTNYDSTRGEYDYWGQGTQVTVSS | low polyreactivity
QVQLVESGGGLVQAGGSLRLSCAASGSILGSYAMGWYRQAPGKERELVAAINYSGGSTYYADSVKGRFTISRDNAKNTVYLQMNSLKPEETAVYYCAAVATAGYSNYKLDYWGQGTQVTVSS | low polyreactivity
QVQLVESGGGLVQAGGSLRLSCAASGSILGVYAMGWYRQAPGKERELVAAISSGGRTYYADSVKGRFTISRDNAKNTVYLQMNSLKPEDTAVYYCNAVSGSFLKYSRYYWGQGTQVTVSS | high polyreactivity
QVQLVESGGGLVQAGGSLRLSCAASGSILIGNAMGWYRQAPGKERELVAGISSDVSTNYADSVKGRFTISRDNAKNTVYLQMNSLNPEDTAVYYCNKDAGPFQEHLYSWGYDSWGQGTQVTVSS | low polyreactivity
QVQLVESGGGLVQAGGSLRLSCAASGSILIVYAMGWYRQAPGKERELVAAITRGGRTNYADSVKGRFTISRDNAKNTVYLQMNSLKPEDTAVYYCAARVLPANVKPYNYWGQGTQVTVSS | high polyreactivity
QVQLVESGGGLVQAGGSLRLSCAASGSILKRYAMGWYRQAPGKERELVAAITRRGGSTYYADSVKGRFTISRDNAKNTVYLQMNSLKPEDTAVYYCNAYTYSATVPIFTNYGYWGQGTQVTVSS | high polyreactivity
QVQLVESGGGLVQAGGSLRLSCAASGSILLDYAMGWYRQAPGKERELVAVISRRGTSTYYADSVKGRFTISRDNAKNTVYLQMNSLKPEDTAVYYCATSTWSFYRRYDYWGQGTQVTVSS | high polyreactivity
QVQLVESGGGLVQAGGSLRLSCAASGSILLTNAMGWYRQAPGKERELVAAITSSGGSTSYADSVKGRFTISRDNAKNTVYIQMNSLKPEDTAVYYCAAAQRYRSQQFDHWGQGTQVTVSS | low polyreactivity
QVQLVESGGGLVQAGGSLRLSCAASGSILLWNTMGWYRQAPGKERELVADIRLSASSTYYSDSVKGRITISRDNAKNTVYLQMNSLKPEDTAVSYSAADEYTPDYGQGYDYWGQGTQVTVSS | low polyreactivity
QVQLVESGGGLVQAGGSLRLSCAASGSILNDYAMGWYRQAPGKERELVAGISRGGGTYYADSVKGRFTISRDNAKNTVYLQMNSLKPEDTAVYYCAKRIYWYHYRYDYWGQGTQVTVSS | high polyreactivity
QVQLVESGGGLVQAGGSLRLSCAASGSILPRYVMGSYRQAPAKETELVAAISQSGGSTYYADTVKARFTISRDNAKNTVYLQMNRLKPEDTAVYYCAAEVRGWRVDYYYWGQGTQVTVSS | high polyreactivity
QVQLVESGGGLVQAGGSLRLSCAASGSILPYYAMGWYRQAPGKERELVAAISVSGGGTYYADSVKGRFTISRDNAKNTVYLQMNSLKPEDTAVYYCARNVNAQKVLGGFDSWGQGTQVTVSS | low polyreactivity
QVQLVESGGGLVQAGGSLRLSCAASGSILQTNVMGWYIQAPGKEREFVAAIRWSTVSTYYADSVKGRFTISRDNAKNTVYLQMNSLKPEDTAVYYCASAKSWYSYKMDYWGQGTQVTVSS | low polyreactivity
QVQLVESGGGLVQAGGSLRLSCAASGSILRRNTMGCYRQAPGKERELVAAINKTGGSTYYADSVKGRFTISRDNAKNTVYLQMNSLKPEDTAVYYCNRDKYYGTKYDYWGQGTQVTVSS | low polyreactivity
QVQLVESGGGLVQAGGSLRLSCAASGSILRRYAMGWYRQAPWKERELVAAITSSGGGTYYADSVKGRFTISRDNAKNTVYLQMKSLKPEVTAVYYCAAEYGWLYEYDYWGQGTQVTVSS | high polyreactivity
QVQLVESGGGLVQAGGSLRLSCAASGSILRSNAMGWYRQAPGKERELVAAITFNGGSTYADSVKGRFTISRDNAKNTVYLQMNSLIPEDTAVYYCATGDGPSLFDYWGQGTQVTVSS | low polyreactivity
QVQLVESGGGLVQAGGSLRLSCAASGSILRSYAMGWYRQAPGKERELVAAISSSGGSTYYADSVKGRFTISRDNAKNTVYLQMNSLKPEDTAVYYCAAATSRRFDYWGQGTQVTVSS | high polyreactivity
QVQLVESGGGLVQAGGSLRLSCAASGSILRTYTMGWYRQATGKERELVAAISSSGGRTYYADSVKGRFTISRDNAKNTVYLQMNSLKPEDTAVYYCNAGGYRYRSYDYWGQGTQVTVSS | high polyreactivity
QVQLVESGGGLVQAGGSLRLSCAASGSILRYTMGWYRQAPGKEREWVAAITRSGTSTYYADSVKGRFTISRDNAKNTVYLQMNSLKPEDTAVYYCAASAGPRASYYYWGQGTQVTVSS | high polyreactivity
QVQLVESGGGLVQAGGSLRLSCAASGSILRYYAMGWYRQAPGKERELVAAITGRGGRTYYADSVKGRFTISRDNAKYTVYLQMNSLKPEDTAVYYCAADGDNPYLHEEDYWGQGTQVTVSS | high polyreactivity
QVQLVESGGGLVQAGGSLRLSCAASGSILSFNAMGWYRQAPGKERELVAAISRGGSTNYADSVKGRFTISRDNAKNTVYLQMNSLKPEDTAVYYCAAVQYRYSTRWARRAYDYWGQGTQVTVSS | high polyreactivity
QVQLVESGGGLVQAGGSLRLSCAASGSILSINGMGWYRQAPGKERELVATIDGSDGSTFYADSVKGRFTISRDNAKNTVYLQMNSLKPEDTAVYYCAAENFWQTKEYDYWGQGTQVTVSS | low polyreactivity
QVQLVESGGGLVQAGGSLRLSCAASGSILSLYTMGWYRQAPGKERELVARISRSGGSTYYADSVKGRFTISRDNAKNTVYLQMNSLKTEDTAVYYCAARPYVVIYYGKSRGYYWGQGTQVTVSS | high polyreactivity
QVQLVESGGGLVQAGGSLRLSCAASGSILSPNAMGWYRQAPGKERELVADISSVGSTYYADSVKGRFTISRDNAKNTVYLQMNSLKPEDTAVYYCAAEFRATDGIGYDYWGQGTHVTVSS | low polyreactivity
QVQLVESGGGLVQAGGSLRLSCAASGSILSYYAMGWYRQAPGKEREFVAAISSGGGTYYADSVKGRFTISRDNAKNTVYLQMNSLKPEDTAVYYCNAEIWTEGGYWGQGTQVTVSS | low polyreactivity
QVQLVESGGGLVQAGGSLRLSCAASGSILSYYTMGWYRQAPGKERELVAAISAGGGSTYYADSVKGRFTISRDNAKNTVYLQMNSLKPEDTAVYYCASGFSRRWQYNYWGQGTQVTVSS | high polyreactivity
